# Test system: C=C(OP(=O)(O)O)C(=O)O
# Assay: anti-pHis dot-blot assay of autophosphorylation velocity
# Format: biochemical, Escherichia coli
# Settings: phosphoryl donor; n = 3
substance,measurement,value
enzyme I (PtsI) (Escherichia coli K-12),Km,135 ± 30 µM

# Source: PMC3686892
